# T1: WOX11 (rice, UniProt Q0D3I7 1-262)
# T1 sequence: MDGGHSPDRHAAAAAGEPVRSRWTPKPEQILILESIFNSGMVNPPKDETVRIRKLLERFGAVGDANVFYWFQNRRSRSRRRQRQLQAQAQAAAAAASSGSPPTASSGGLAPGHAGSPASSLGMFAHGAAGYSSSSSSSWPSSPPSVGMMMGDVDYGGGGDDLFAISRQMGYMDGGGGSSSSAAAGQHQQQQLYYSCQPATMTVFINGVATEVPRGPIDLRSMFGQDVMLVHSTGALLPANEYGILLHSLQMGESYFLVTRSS
# Biological target: T1, WOX11
# Experiment: EMSA
binder,measurement,value
PRX111-P2 (dsDNA) DNA 1: TTCACTTAGCTTAATGCTGCTGGTGGC DNA 2: GCCACCAGCAGCATTAAGCTAAGTGAA,binding result,binds

# — PMC10248720
